{"source": "patent US20140178854A1", "key": {"[1]": {"target": "gp70 env protein of amphotropic MLV (4070A envelope), on purified viral particles (amphotropic murine leukemia virus (4070A envelope))", "sequence (P21995 whole entry)": "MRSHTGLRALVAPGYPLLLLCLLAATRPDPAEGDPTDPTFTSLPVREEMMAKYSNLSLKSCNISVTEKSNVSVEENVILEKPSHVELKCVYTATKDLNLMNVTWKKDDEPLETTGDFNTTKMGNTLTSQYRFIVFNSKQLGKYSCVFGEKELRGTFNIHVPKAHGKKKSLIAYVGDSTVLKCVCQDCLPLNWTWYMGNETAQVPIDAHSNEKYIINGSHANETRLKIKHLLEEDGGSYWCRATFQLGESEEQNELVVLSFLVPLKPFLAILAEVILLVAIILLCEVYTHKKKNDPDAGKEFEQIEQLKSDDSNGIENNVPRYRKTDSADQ", "experiment": "ELISA on plate-bound MLV, dilution factor 156250, Exp073-DTV Plate 1"}, "[2]": {"target": "gp70 env protein of amphotropic MLV (4070A envelope), on purified viral particles (amphotropic murine leukemia virus (4070A envelope))", "experiment": "ELISA on plate-bound MLV, dilution factor 156250, Exp125-Ana Plate 2"}, "[3]": {"target": "gp70 env protein of amphotropic MLV (4070A envelope), on purified viral particles (amphotropic murine leukemia virus (4070A envelope))", "experiment": "ELISA on plate-bound MLV, dilution factor 31250, Exp121-Ana Plate 2"}, "[4]": {"target": "gp70 env protein of amphotropic MLV (4070A envelope), on purified viral particles (amphotropic murine leukemia virus (4070A envelope))", "experiment": "ELISA on plate-bound MLV, dilution factor 781250, Exp074-DTV Plate 1"}, "[5]": {"target": "gp70 env protein of amphotropic MLV (4070A envelope), on purified viral particles (amphotropic murine leukemia virus (4070A envelope))", "experiment": "ELISA on plate-bound MLV, dilution factor 250, Exp074-DTV Plate 2"}, "[6]": {"target": "gp70 env protein of amphotropic MLV (4070A envelope), on purified viral particles (amphotropic murine leukemia virus (4070A envelope))", "experiment": "ELISA on plate-bound MLV, dilution factor 1250, Exp074-DTV Plate 1"}, "[7]": {"target": "gp70 env protein of amphotropic MLV (4070A envelope), on purified viral particles (amphotropic murine leukemia virus (4070A envelope))", "experiment": "ELISA on plate-bound MLV, dilution factor 6250, Exp125-Ana Plate 2"}, "[8]": {"target": "gp70 env protein of amphotropic MLV (4070A envelope), on purified viral particles (amphotropic murine leukemia virus (4070A envelope))", "experiment": "ELISA on plate-bound MLV, dilution factor 156250, Exp121-Ana Plate 1"}, "[9]": {"target": "gp70 env protein of amphotropic MLV (4070A envelope), on purified viral particles (amphotropic murine leukemia virus (4070A envelope))", "experiment": "ELISA on plate-bound MLV, dilution factor 10, Exp073-DTV Plate 1"}, "[10]": {"target": "gp70 env protein of amphotropic MLV (4070A envelope), on purified viral particles (amphotropic murine leukemia virus (4070A envelope))", "experiment": "ELISA on plate-bound MLV, dilution factor 156250, Exp074-DTV Plate 2"}, "[11]": {"target": "gp70 env protein of amphotropic MLV (4070A envelope), on purified viral particles (amphotropic murine leukemia virus (4070A envelope))", "experiment": "ELISA on plate-bound MLV, dilution factor 156250, inter-assay mean of six experiments"}, "[12]": {"target": "gp70 env protein of amphotropic MLV (4070A envelope), on purified viral particles (amphotropic murine leukemia virus (4070A envelope))", "experiment": "ELISA on plate-bound MLV, dilution factor 10, Exp072-DTV Plate 2"}, "[13]": {"target": "gp70 env protein of amphotropic MLV (4070A envelope), on purified viral particles (amphotropic murine leukemia virus (4070A envelope))", "experiment": "ELISA on plate-bound MLV, dilution factor 50, Exp125-Ana Plate 1"}, "[14]": {"target": "gp70 env protein of amphotropic MLV (4070A envelope), on purified viral particles (amphotropic murine leukemia virus (4070A envelope))", "experiment": "ELISA on plate-bound MLV, dilution factor 6250, Exp073-DTV Plate 1"}, "[15]": {"target": "gp70 env protein of amphotropic MLV (4070A envelope), on purified viral particles (amphotropic murine leukemia virus (4070A envelope))", "experiment": "ELISA on plate-bound MLV, dilution factor 250, Exp122-Ana Plate 1"}, "[16]": {"target": "gp70 env protein of amphotropic MLV (4070A envelope), on purified viral particles (amphotropic murine leukemia virus (4070A envelope))", "experiment": "ELISA on plate-bound MLV, dilution factor 1250, Exp072-DTV Plate 2"}, "[17]": {"target": "gp70 env protein of amphotropic MLV (4070A envelope), on purified viral particles (amphotropic murine leukemia virus (4070A envelope))", "experiment": "ELISA on plate-bound MLV, dilution factor 6250, Exp122-Ana Plate 1"}, "[18]": {"target": "gp70 env protein of amphotropic MLV (4070A envelope), on purified viral particles (amphotropic murine leukemia virus (4070A envelope))", "experiment": "ELISA on plate-bound MLV, dilution factor 6250, Exp074-DTV Plate 2"}, "[19]": {"target": "gp70 env protein of amphotropic MLV (4070A envelope), on purified viral particles (amphotropic murine leukemia virus (4070A envelope))", "experiment": "ELISA on plate-bound MLV, dilution factor 50, Exp121-Ana Plate 2"}, "[20]": {"target": "gp70 env protein of amphotropic MLV (4070A envelope), on purified viral particles (amphotropic murine leukemia virus (4070A envelope))", "experiment": "ELISA on plate-bound MLV, dilution factor 6250, Exp073-DTV Plate 2"}, "[21]": {"target": "gp70 env protein of amphotropic MLV (4070A envelope), on purified viral particles (amphotropic murine leukemia virus (4070A envelope))", "experiment": "ELISA on plate-bound MLV, dilution factor 31250, Exp122-Ana Plate 1"}, "[22]": {"target": "gp70 env protein of amphotropic MLV (4070A envelope), on purified viral particles (amphotropic murine leukemia virus (4070A envelope))", "experiment": "ELISA on plate-bound MLV, dilution factor 781250, Exp072-DTV Plate 1"}, "[23]": {"target": "gp70 env protein of amphotropic MLV (4070A envelope), on purified viral particles (amphotropic murine leukemia virus (4070A envelope))", "experiment": "ELISA on plate-bound MLV, dilution factor 50, inter-assay mean of six experiments"}, "[24]": {"target": "gp70 env protein of amphotropic MLV (4070A envelope), on purified viral particles (amphotropic murine leukemia virus (4070A envelope))", "experiment": "ELISA on plate-bound MLV, dilution factor 10, Exp121-Ana Plate 2"}, "[25]": {"target": "gp70 env protein of amphotropic MLV (4070A envelope), on purified viral particles (amphotropic murine leukemia virus (4070A envelope))", "experiment": "ELISA on plate-bound MLV, dilution factor 10, Exp074-DTV Plate 2"}, "[26]": {"target": "gp70 env protein of amphotropic MLV (4070A envelope), on purified viral particles (amphotropic murine leukemia virus (4070A envelope))", "experiment": "ELISA on plate-bound MLV, dilution factor 10, Exp122-Ana Plate 2"}}, "data": [{"substance": "83A25 monoclonal antibody (rat IgG2a, anti-gp70)", "values": [{"measurement": "Mean OD", "setting": "[1]", "value": 0.14, "unit": "OD"}, {"measurement": "Mean OD", "setting": "[2]", "value": 0.124, "unit": "OD"}, {"measurement": "Mean OD", "setting": "[3]", "value": 0.276, "unit": "OD"}, {"measurement": "Mean OD", "setting": "[4]", "value": 0.114, "unit": "OD"}, {"measurement": "Mean OD", "setting": "[5]", "value": 1.89, "unit": "OD"}, {"measurement": "Mean OD", "setting": "[6]", "value": 1.45, "unit": "OD"}, {"measurement": "Mean OD", "setting": "[7]", "value": 0.635, "unit": "OD"}, {"measurement": "Mean OD", "setting": "[8]", "value": 0.163, "unit": "OD"}, {"measurement": "Mean OD", "setting": "[9]", "value": 2.43, "unit": "OD"}, {"measurement": "Mean OD", "setting": "[10]", "value": 0.131, "unit": "OD"}, {"measurement": "Mean OD (inter-assay mean)", "setting": "[11]", "value": 0.144, "unit": "OD"}, {"measurement": "Mean OD", "setting": "[12]", "value": 2.04, "unit": "OD"}, {"measurement": "Mean OD", "setting": "[13]", "value": 1.99, "unit": "OD"}, {"measurement": "Mean OD", "setting": "[14]", "value": 0.803, "unit": "OD"}, {"measurement": "Mean OD", "setting": "[15]", "value": 1.86, "unit": "OD"}, {"measurement": "Mean OD", "setting": "[16]", "value": 1.31, "unit": "OD"}, {"measurement": "Mean OD", "setting": "[17]", "value": 0.64, "unit": "OD"}, {"measurement": "Mean OD", "setting": "[18]", "value": 0.699, "unit": "OD"}, {"measurement": "Mean OD", "setting": "[19]", "value": 2.46, "unit": "OD"}, {"measurement": "Mean OD", "setting": "[20]", "value": 0.773, "unit": "OD"}, {"measurement": "Mean OD", "setting": "[21]", "value": 0.289, "unit": "OD"}, {"measurement": "Mean OD", "setting": "[22]", "value": 0.087, "unit": "OD"}, {"measurement": "Mean OD (inter-assay mean)", "setting": "[23]", "value": 2.09, "unit": "OD"}, {"measurement": "Mean OD", "setting": "[24]", "value": 2.65, "unit": "OD"}, {"measurement": "Mean OD", "setting": "[25]", "value": 2.31, "unit": "OD"}, {"measurement": "Mean OD", "setting": "[26]", "value": 2.18, "unit": "OD"}]}]}
